Assay results: PMC4277767 (ACS Synthetic Biology, 2014)

Target: LexA-CRY2 (CRY2 fused to the LexA DNA binding domain) (Arabidopsis, UniProt Q96524 1-612)
Test: two-hybrid

Sequence of LexA-CRY2 (CRY2 fused to the LexA DNA binding domain) (Q96524 whole entry, the tested form may be a part): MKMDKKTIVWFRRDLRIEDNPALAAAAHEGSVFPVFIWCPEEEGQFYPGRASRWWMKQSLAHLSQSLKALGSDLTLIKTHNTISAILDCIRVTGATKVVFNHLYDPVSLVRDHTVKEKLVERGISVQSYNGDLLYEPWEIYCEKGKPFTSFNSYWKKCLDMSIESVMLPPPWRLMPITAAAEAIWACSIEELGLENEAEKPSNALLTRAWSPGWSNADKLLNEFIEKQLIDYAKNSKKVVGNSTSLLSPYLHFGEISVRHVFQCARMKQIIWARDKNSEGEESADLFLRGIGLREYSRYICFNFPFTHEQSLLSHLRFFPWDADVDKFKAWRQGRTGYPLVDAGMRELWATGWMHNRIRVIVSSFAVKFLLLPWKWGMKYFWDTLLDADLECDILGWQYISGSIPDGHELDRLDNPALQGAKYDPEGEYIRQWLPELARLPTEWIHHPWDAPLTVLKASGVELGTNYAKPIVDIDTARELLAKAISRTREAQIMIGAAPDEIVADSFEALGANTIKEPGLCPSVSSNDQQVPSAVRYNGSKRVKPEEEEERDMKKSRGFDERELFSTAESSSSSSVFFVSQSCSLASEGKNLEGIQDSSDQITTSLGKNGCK

B1: VP16-CIB1 (CIB1 fused to a VP16 activation domain) (natural protein, Arabidopsis, UniProt Q8GY61 1-335, looked up)
chain: MNGAIGGDLLLNFPDMSVLERQRAHLKYLNPTFDSPLAGFFADSSMITGGEMDSYLSTAGLNLPMMYGETTVEGDSRLSISPETTLGTGNFKKRKFDTETKDCNEKKKKMTMNRDDLVEEGEEEKSKITEQNNGSTKSIKKMKHKAKKEENNFSNDSSKVTKELEKTDYIHVRARRGQATDSHSIAERVRREKISERMKFLQDLVPGCDKITGKAGMLDEIINYVQSLQRQIEFLSMKLAIVNPRPDFDMDDIFAKEVASTPMTVVPSPEMVLSGYSHEMVHSGYSSEMVNSGYLHVNPMQQVNTSSDPLSCFNNGEAPSMWDSHVQNLYGNLGV
fold stimulation of reporter activity by blue light over dark: ~100 fold
